Several values for one entry are separate records, joined by “and”; a condition that tells them apart may be missing. Equal values may be shown once.

The target in test [1] is T1, Mouse Fc-human GDF15 (Mu IgG1Fc_Fxa_Hu GDF15) (human (GDF15 part)).
T1 construct: Whole fusion entry; also called Murine dimeric IgG1 Fc-human GDF-15 with FXa cleavage site; control human GDF15
T1 chain: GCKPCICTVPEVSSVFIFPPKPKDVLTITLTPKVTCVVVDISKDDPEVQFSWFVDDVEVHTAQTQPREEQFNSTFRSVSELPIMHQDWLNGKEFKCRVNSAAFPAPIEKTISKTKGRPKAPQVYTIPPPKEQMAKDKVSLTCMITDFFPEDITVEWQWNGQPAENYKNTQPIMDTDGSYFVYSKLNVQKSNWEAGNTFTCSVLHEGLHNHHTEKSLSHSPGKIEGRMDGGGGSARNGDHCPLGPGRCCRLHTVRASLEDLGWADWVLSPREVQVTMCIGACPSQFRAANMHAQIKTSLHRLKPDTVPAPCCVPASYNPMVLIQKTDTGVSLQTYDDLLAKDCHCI
The test is described as follows: SPR BIAcore T200 37C; Fc-GDF15 captured, IgG analyte. Here is the method:
Mouse Fc-human GDF15 (Mu IgG1Fc_Fxa_Hu GDF15; SEQ ID NO:2), Mouse Fc-mouse GDF15 (Mu IgG1Fc_Fxa_Mu GDF15; SEQ ID NO:5) and Mouse Fc-cynomolgus monkey GDF15 (Mu IgG1Fc_Fxa_Cyno GDF15; SEQ ID NO:4) were captured onto three different flow cells of a CM4 sensorchip (catalogue number BR100534, GE Healthcare) surface using the Mouse Antibody Capture Kit (BR100838, GE Healthcare) according to the manufacturer's protocol. The running and sample buffer was 10 mM HEPES pH 7.4, 0.15M NaCl, 3 mM EDTA, 0.05% P-20 (HBS-EP+). The final capture levels of Mu IgG1Fc_Fxa_Hu GDF15, Mu IgG1Fc_Fxa_Mu GDF15 and Mu IgG1Fc_Fxa_Cyno GDF15 were 40 resonance units (RU), 32 RU and 25 RU respectively. Flow cell 1 was used as a reference flow cell. […] The dissociation was monitored for 2.8 hours and the surface was regenerated with 10 mM Glycine pH 1.7. Binding affinities and rate constants were determined for murine and cynomolgus monkey GDF15 by fitting the resulting sensorgram data to a 1:1 Langmuir model in BIAcore T200 Evaluation software version 2.0 (GE Healthcare). […]

Test [2] has as its target T1, Mouse Fc-human GDF15 (Mu IgG1Fc_Fxa_Hu …). The test is described as follows: SPR BIAcore T200 37C; Fc-GDF15 captured, IgG analyte; same run as printed in Table 6 (the 8th table r8). How it is done:
(§1) Mouse Fc-human GDF15 (Mu IgG1Fc_Fxa_Hu GDF15; SEQ ID NO:2), Mouse Fc-mouse GDF15 (Mu IgG1Fc_Fxa_Mu GDF15; SEQ ID NO:5) and Mouse Fc-cynomolgus monkey GDF15 (Mu IgG1Fc_Fxa_Cyno GDF15; SEQ ID NO:4) were captured onto three different flow cells of a CM4 sensorchip (catalogue number BR100534, GE Healthcare) surface using the Mouse Antibody Capture Kit (BR100838, GE Healthcare) according to the manufacturer's protocol. The running and sample buffer was 10 mM HEPES pH 7.4, 0.15M NaCl, 3 mM EDTA, 0.05% P-20 (HBS-EP+). The final capture levels of Mu IgG1Fc_Fxa_Hu GDF15, Mu IgG1Fc_Fxa_Mu GDF15 and Mu IgG1Fc_Fxa_Cyno GDF15 were 40 resonance units (RU), 32 RU and 25 RU respectively. Flow cell 1 was used as a reference flow cell. […] The dissociation was monitored for 2.8 hours and the surface was regenerated with 10 mM Glycine pH 1.7. Binding affinities and rate constants were determined for murine and cynomolgus monkey GDF15 by fitting the resulting sensorgram data to a 1:1 Langmuir model in BIAcore T200 Evaluation software version 2.0 (GE Healthcare).
(§2) Additionally, the binding of clone GDF15_001 to cynomolgus monkey and mouse GDF15 was measured using above mentioned BIAcore assay (Table 7).
In general terms: SPR reads the build-up and loss of mass on a sensor chip optically.

The target is the same in test [3]. Briefly: SPR BIAcore T200 37C; Fc-GDF15 captured, IgG analyte; same run as printed in Table 6 (the 8th table r9). Here is the method: as §1, §2
For test [4] the target is unchanged. Briefly: SPR BIAcore T200 37C; Fc-GDF15 captured, IgG analyte; same run as printed in Table 6 (the 8th table r7). How it is done:
as §1, §2

Test [5] concerns the target T2, Mouse Fc-cynomolgus monkey GDF15 (Mu IgG1Fc_Fxa_Cyno GDF15) (cynomolgus monkey (GDF15 part)).
T2 construct: Whole fusion entry; also called Murine dimeric IgG1 Fc-cyno GDF-15 with FXa cleavage site
T2 chain: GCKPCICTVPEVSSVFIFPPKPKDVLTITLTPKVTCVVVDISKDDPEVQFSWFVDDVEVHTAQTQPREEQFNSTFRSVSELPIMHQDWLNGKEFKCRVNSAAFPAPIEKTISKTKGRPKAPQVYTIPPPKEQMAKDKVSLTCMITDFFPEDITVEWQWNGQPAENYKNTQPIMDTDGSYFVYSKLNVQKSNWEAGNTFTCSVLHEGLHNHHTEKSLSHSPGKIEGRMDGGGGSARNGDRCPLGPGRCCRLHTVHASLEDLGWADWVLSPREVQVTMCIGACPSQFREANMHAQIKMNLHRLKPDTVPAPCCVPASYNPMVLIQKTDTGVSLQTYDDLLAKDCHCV
The test is described as follows: SPR BIAcore T200 37C; Fc-GDF15 captured, IgG analyte. Here is the method:
as §1, §2

B1: GDF15_001 (antibody, human IgG1, kappa, V domains shown)
VH: QVQLVQSGAEVKKPGSSVKVSCKASGYTFSSYNIDWVRQAPGQGLEWMGGINPIFGTAFYNQKFQGRVTITADESTSTAYMELSSLRSEDTAVYYCAREAITTVGAMDHWGQGTLVTVSS
VL: EIVLTQSPATLSLSPGERATLSCRTSQSVHNYLAWYQQKPGQAPRLLIYDASTRADGIPARFSGSGSGTDFTLTISSLEPEDFAVYYCQQFWSWPWTFGQGTKVEIKR
notes: Bivalent IgG1/kappa; also called clone GDF15_001; anti-GDF15_001
With B1, the T½ in test [1] is 40.3 h and 20.9 h and 30.8 h; in test [2], 30.8 h; in test [3], 40.3 h; in test [4] it was 20.9 h; in test [5], 14.8 h and 15.5 h and 18.7 h.

(Values after patent US20200055930A1 (Pfizer, published 2020).)
